The assay addresses GST-Kv4.3 NT (human). Nature of the assay: pull-down.

This passage reports fold binding activity relative to DPP6-T results from article PMC4599408.

Sequence of GST-Kv4.3 NT (human) (Q9UK17 whole entry): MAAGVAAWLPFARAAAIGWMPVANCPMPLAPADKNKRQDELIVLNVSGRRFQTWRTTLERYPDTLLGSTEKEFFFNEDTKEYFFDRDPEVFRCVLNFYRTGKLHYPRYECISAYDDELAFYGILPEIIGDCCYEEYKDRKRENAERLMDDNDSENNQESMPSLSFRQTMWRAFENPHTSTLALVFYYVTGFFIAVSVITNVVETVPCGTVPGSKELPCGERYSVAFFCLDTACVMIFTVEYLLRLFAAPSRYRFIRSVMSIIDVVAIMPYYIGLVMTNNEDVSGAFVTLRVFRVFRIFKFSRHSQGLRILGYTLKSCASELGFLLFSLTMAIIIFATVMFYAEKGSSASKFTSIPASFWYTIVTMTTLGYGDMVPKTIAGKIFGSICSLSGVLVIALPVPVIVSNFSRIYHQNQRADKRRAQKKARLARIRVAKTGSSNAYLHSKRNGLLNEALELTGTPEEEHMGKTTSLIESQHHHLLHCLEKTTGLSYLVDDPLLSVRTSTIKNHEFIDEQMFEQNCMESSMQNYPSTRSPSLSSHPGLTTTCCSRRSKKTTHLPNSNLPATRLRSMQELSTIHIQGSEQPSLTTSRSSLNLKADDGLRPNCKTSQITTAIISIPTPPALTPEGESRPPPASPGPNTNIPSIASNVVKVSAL

With “DPP6-T p.H332R variant, in vitro translated and radiolabeled (natural protein)”, the fold binding activity relative to DPP6-T was over 2 fold.
